Assay [1] deals with IL-13Rα2 on engineered EMT6 cells (EMT6-IL13Rα2). Description: cell-based or functional assay.
The target of assay [2] is T1, IL-13Rα2 on human A375 and U87 cells (human, UniProt Q14627 27-380).
T1 sequence (looked up): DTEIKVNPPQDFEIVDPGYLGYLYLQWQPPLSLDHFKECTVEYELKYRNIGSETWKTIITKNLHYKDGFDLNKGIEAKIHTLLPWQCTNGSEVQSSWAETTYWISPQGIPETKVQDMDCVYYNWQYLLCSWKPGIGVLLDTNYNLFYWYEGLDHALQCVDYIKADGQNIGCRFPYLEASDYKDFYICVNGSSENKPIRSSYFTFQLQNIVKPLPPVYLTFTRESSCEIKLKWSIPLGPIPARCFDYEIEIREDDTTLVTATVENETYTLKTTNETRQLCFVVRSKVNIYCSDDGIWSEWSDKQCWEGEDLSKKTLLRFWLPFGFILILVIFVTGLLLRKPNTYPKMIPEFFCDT
Description: cell-based or functional assay.

The target in assay [3] is IL-13Rα2 on engineered EMT6 cells (EMT6-IL13Rα2). Put plainly: cell-based or functional assay. This is another data set of the same source.
Assay [4] deals with T1, IL-13Rα2 on human A375 and U87 cells. Put plainly: cell-based or functional assay. The source holds these as a separate data set.
A further assay concerns the target T2, Fc-IL13 (1:1 KIH) (human, UniProt P35225 34-146).
T2 construct: also called Fc-IL13 KIH
Put plainly: SPR. The protocol: Receptor binding was assessed using surface plasmon resonance (SPR) in which test constructs (i.e., Fc-MDNA132) were bound onto SPR chip surface and receptors (i.e., IL-13Rα1 and IL-13Rα2) were used as flow analytes (data not shown).
Representative SPR sensorgrams of Fc-MDNA132 and Fc-51.13 binding to […] and IL-13Rα2 is shown in (data not shown) and KD values are tabulated in Table 12. Variants contain the 5 core mutations of MDNA132 and an added mutation at amino acid position indicated in the name of the constructs.
For orientation: Surface plasmon resonance follows binding to a sensor surface in real time, without labels.

What is called Kd is the equilibrium constant for the complex coming apart.

B1: MDNA132.15-PE (other)
chain: GPGPVPPSTAHRELIRELVNITQNQKAPLCNGSMVWSINLTAGMYCAALESLINVSGCSAIEKTQRMLSGFCPHKVSAGQFSSLHVTGRKIEVAQFVKDLLLHLKKLFKEGQFNASGGPEGGSLAALTAHQACHLPLETFTRHRQPRGWEQLEQCGYPVQRLVALYLAARLSWNQVDQVIRNALASPGSGGDLGEAIREQPEQARLALTLAAAESERFVRQGTGNDEAGAANGPADSGDALLERNYPTGAEFLGDGGDVSFSTRGTQNWTVERLLQAHRQLEERGYVFVGYHGTFLEAAQSIVFGGVRARSQDLDAIWRGFYIAGDPALAYGYAQDQEPDARGRIRNGALLRVYVPRSSLPGFYRTSLTLAAPEAAGEVERLIGHPLPLRLDAITGPEEEGGRLETILGWPLAERTVVIPSAIPTDPRNVGGDLDPSSIPDKEQAISALPDYASQPGKPPKDEL
B1: the “IC50 (pM), cytotoxicity assay, EMT6-IL13Rα2 cells, 48 h incubation” value in assay [1] came out at 2.1 pM. Besides, in assay [2], the “IC50 (pM), cytotoxicity assay, A375 cells, 48 h incubation” value came to 1.02 pM and the “IC50 (pM), cytotoxicity assay, U87 cells, 48 h incubation” value stood at 11.4 pM. Moreover, the “IC50 (pM), cytotoxicity assay, EMT6-IL13Rα2 cells, 72 h incubation” value in assay [3] turned out to be 1.13 pM. In assay [4], the “IC50 (pM), cytotoxicity assay, A375 cells, 72 h incubation” value worked out at 1.1 pM and the “IC50 (pM), cytotoxicity assay, U87 cells, 72 h incubation” value amounted to 208 pM.

B2: cpMDNA132.15-PE (other)
chain: MTAGMYCAALESLINVSGCSAIEKTQRMLSGFCPHKVSAGQFSSLHVTGRKIEVAQFVKDLLLHLKKLFKEGQFNGGNGGPGPVPPSTAHRELIRELVNITQNQKAPLCNGSMVWSINLASGGPEGGSLAALTAHQACHLPLETFTRHRQPRGWEQLEQCGYPVQRLVALYLAARLSWNQVDQVIRNALASPGSGGDLGEAIREQPEQARLALTLAAAESERFVRQGTGNDEAGAANGPADSGDALLERNYPTGAEFLGDGGDVSFSTRGTQNWTVERLLQAHRQLEERGYVFVGYHGTFLEAAQSIVFGGVRARSQDLDAIWRGFYIAGDPALAYGYAQDQEPDARGRIRNGALLRVYVPRSSLPGFYRTSLTLAAPEAAGEVERLIGHPLPLRLDAITGPEEEGGRLETILGWPLAERTVVIPSAIPTDPRNVGGDLDPSSIPDKEQAISALPDYASQPGKPPKDEL
Regarding B2, the “IC50 (pM), cytotoxicity assay, EMT6-IL13Rα2 cells, 48 h incubation” value in assay [1] was determined as 1 pM. In assay [2], the “IC50 (pM), cytotoxicity assay, A375 cells, 48 h incubation” value came to 1.5 pM and the “IC50 (pM), cytotoxicity assay, U87 cells, 48 h incubation” value was 4.2 pM. Also, in assay [3], the “IC50 (pM), cytotoxicity assay, EMT6-IL13Rα2 cells, 72 h incubation” value was 1 pM. In assay [4], the “IC50 (pM), cytotoxicity assay, A375 cells, 72 h incubation” value is 1.3 pM and the “IC50 (pM), cytotoxicity assay, U87 cells, 72 h incubation” value is 7.6 pM.

B3: human IL-13Rα1 (receptor, UniProt P78552 22-343, looked up)
chain: GGGGAAPTETQPPVTNLSVSVENLCTVIWTWNPPEGASSNCSLWYFSHFGDKQDKKIAPETRRSIEVPLNERICLQVGSQCSTNESEKPSILVEKCISPPEGDPESAVTELQCIWHNLSYMKCSWLPGRNTSPDTNYTLYYWHRSLEKIHQCENIFREGQYFGCSFDLTKVKDSSFEQHSVQIMVKDNAGKIKPSFNIVPLTSRVKPDPPHIKNLSFHNDDLYVQWENPQNFISRCLFYEVEVNNSQTETHNVFYVQEAKCENPEFERNVENTSCFMVPGVLPDTLNTVRIRVKTNKLCYEDDKLWSNWSQEMSIGKKRNST
notes: also called IL-13αR1
In the assay with Fc-IL13 (1:1 KIH), B3 gave a Kd of 470 nM.

B4: human IL-13Rα2 (receptor, UniProt Q14627 27-343, looked up)
chain: DTEIKVNPPQDFEIVDPGYLGYLYLQWQPPLSLDHFKECTVEYELKYRNIGSETWKTIITKNLHYKDGFDLNKGIEAKIHTLLPWQCTNGSEVQSSWAETTYWISPQGIPETKVQDMDCVYYNWQYLLCSWKPGIGVLLDTNYNLFYWYEGLDHALQCVDYIKADGQNIGCRFPYLEASDYKDFYICVNGSSENKPIRSSYFTFQLQNIVKPLPPVYLTFTRESSCEIKLKWSIPLGPIPARCFDYEIEIREDDTTLVTATVENETYTLKTTNETRQLCFVVRSKVNIYCSDDGIWSEWSDKQCWEGEDLSKKTLLR
notes: also called IL-13Ra2; human IL-13 decoy receptor
The molecule B4 displayed a Kd in the assay with Fc-IL13 (1:1 KIH) of 0.15 nM.

Source of the values: patent US20260232820A1 (MEDICENNA THERAPEUTICS, published 2026).
